Assays:
[1] = target: prefusion RSVF (preRSVF), prefusion-stabilized respiratory syncytial virus fusion protein (respiratory syncytial virus) (UniProt P03420)
S0_2.126 = target: T1, S0_2.126 (synthetic construct (de novo design)); test: SPR
T1 chain: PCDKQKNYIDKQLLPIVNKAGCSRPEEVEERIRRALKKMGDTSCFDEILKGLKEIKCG

prefusion RSVF (preRSVF), prefusion-stabilized respiratory syncytial virus fusion protein (respiratory syncytial virus), sequence (P03420 135-513): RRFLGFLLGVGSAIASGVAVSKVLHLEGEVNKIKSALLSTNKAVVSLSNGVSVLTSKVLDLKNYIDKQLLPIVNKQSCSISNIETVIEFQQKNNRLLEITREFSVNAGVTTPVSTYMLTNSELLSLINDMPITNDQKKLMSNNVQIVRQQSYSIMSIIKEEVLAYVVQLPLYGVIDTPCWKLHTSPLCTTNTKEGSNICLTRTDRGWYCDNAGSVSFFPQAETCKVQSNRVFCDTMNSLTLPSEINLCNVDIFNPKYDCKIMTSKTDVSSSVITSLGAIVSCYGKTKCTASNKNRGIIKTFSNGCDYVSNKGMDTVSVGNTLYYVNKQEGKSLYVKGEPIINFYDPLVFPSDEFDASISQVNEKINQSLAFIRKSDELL

| Molecule | Kd [1] [nM] | Kd (S0_2.126) [nM] |
| --- | --- | --- |
| D25 antibody | 0.15 | – |
| D25 antibody (antibody, V domains shown) VH: QVQLVQSGAEVKKPGSSVMVSCQASGGPLRNYIINWLRQAPGQGPEWMGGIIPVLGTVHYAPKFQGRVTITADESTDTAYIHLISLRSEDTAMYYCATETALVVSTTYLPHYFDNWGQGTLVTVSS VL: DIQMTQSPSSLSAAVGDRVTITCQASQDIVNYLNWYQQKPGKAPKLLIYVASNLETGVPSRFSGSGSGTDFSLTISSLQPEDVATYYCQQYDNLPLTFGGGTKVEIK | – | ~0.05 |

Reference: article PMC7391827 (Science (New York, N.Y.), 2020)
